How the values were obtained:
human 4-1BB on cells [1] = target: T1, human 4-1BB on cells (human, UniProt Q07011 24-255); test: cell-based or functional assay
human 4-1BB on cells [2] = target: T1, human 4-1BB on cells; test: cell-based or functional assay; remark: listed apart in the source
human 4-1BB on cells [3] = target: T1, human 4-1BB on cells; test: cell-based or functional assay; remark: listed apart in the source
human 4-1BB on cells [4] = target: T1, human 4-1BB on cells; test: cell-based or functional assay; remark: listed apart in the source
human 4-1BB on cells [5] = target: T1, human 4-1BB on cells; test: flow cytometry on HEK293/h4-1BB cells, APC anti-human secondary
Description: (§1) The ability of the multispecific antigen binding molecules to bind cells was assessed using flow cytometry. Cell lines were chosen to determine the ability of both the anti-CD38 and anti-4-1BB arms to bind their targets. […] Binding was detected by using a labeled secondary antibody and measuring fluorescence on a flow cytometer.
HEK293 and HEK293/4-1BB cells were lifted with trypsin, washed and resuspended in stain buffer (2% FBS in PBS) and added to wells of a 96 well V-bottom plate (3×10⁵ cells/well). A 1:5, 9-point, dose titration of test antibodies was diluted in stain buffer and added to cells to a final concentration ranging from 1.3 pM to 100 nM (a “no antibody” control was included as the ninth point ([…]) labeled as “secondary only”). Cells and antibodies were incubated for 30 min on ice and then washed in stain buffer. Cells were resuspended in 2 ug/ml allophycocyanin (APC) conjugated goat-anti human secondary antibody and incubated for 30 min on ice. Cells were then washed and resuspended in viability dye (according to the manufacturer's protocol) and incubated for 30 min on ice. Cells were then washed with stain buffer and resuspended in 2% PFA for 30 min on ice. After washing, cells were filtered and analyzed by flow cytometry to determine the geometric mean fluorescence intensity (gMFI), which was subsequently plotted using GraphPad Prism software. EC₅₀ values of the antibodies were determined from a 4-parameter logistic equation over a 9-point dose response curve (including secondary only control).

[6] = target: T2, human CD38 endogenously expressed on MOLP8 cells (human, UniProt P28907 1-300); test: flow cytometry on MOLP8 cells (endogenous hCD38), APC anti-human secondary
T2 construct: whole, on cells; also called hCD38
Description: as §1
HEK293 cells were lifted with trypsin, washed and resuspend in stain buffer (2% FBS in PBS). MOLP8 cells were washed and resuspended in stain buffer. Cells were added to wells of a 96 well V-bottom plate (3×10⁵ cells/well). A 1:4, 9-point, dose titration of test antibodies was diluted in stain buffer and added to cells to a final concentration ranging from 610 fM to 10 nM (a “no antibody” control was included as the ninth point (153fM), labeled as “secondary only”). Cells and antibodies were incubated for 30 min on ice and then washed in stain buffer. Cells were resuspended in 2 ug/ml allophycocyanin (APC) conjugated goat-anti human secondary antibody and incubated for 30 min on ice. Cells were then washed and resuspended in viability dye (according to the manufacturer's protocol) and incubated for 30 min on ice. Cells were then washed with stain buffer and resuspended in 2% PFA for 30 min on ice. After washing, cells were filtered and analyzed by flow cytometry to determine the geometric mean fluorescence intensity (gMFI), which was subsequently plotted using GraphPad Prism software. EC₅₀ values of the antibodies were determined from a 4-parameter logistic equation over a 9-point dose response curve (including secondary only control, representing the ninth point).

[7] = target: T3, human 4-1BB expressed with a C-terminal myc-myc-hexahistidine tag (human, UniProt Q07011 24-186); test: SPR Biacore 8k, antibody captured by anti-human Fc, h4-1BB.mmH as analyte, 25 C
T3 construct: also called h4-1BB.mmH; REGN3584; not shown: C-terminal myc-myc-hexahistidine tag
Description: (§2) Equilibrium dissociation constants (KD values) for human 4-1BB expressed with a C-terminal myc-myc-hexahistidine tag (h4-1BB.mmH, REGN3584) or human 4-1BB expressed with a C-terminal murine Fc tag (h4-1BB.mFc, REGN3585) binding to purified anti-CD38×4-1BB 1+2 antibodies were determined using a real-time surface plasmon resonance biosensor using a Biacore 8k instrument. The CM5 Biacore sensor surface was derivatized by amine coupling with a monoclonal mouse anti-human Fc antibody (REGN2567). All Biacore binding studies were performed in a buffer composed of 0.01M HEPES pH 7.4, 0.15M NaCl, 3 mM EDTA, 0.05% v/v Surfactant P20 (HBS-EP running buffer). […] Antibody-reagent association was monitored for 5 minutes while dissociation in HBS-EP running buffer was monitored for 10 minutes. At the end of each cycle, the anti-CD38×4-1BB 1+2 antibody capture surface was regenerated using a 10 second injection of 20 mM phosphoric acid. All binding kinetics experiments were performed at 25° C.
(§3) Kinetic association (kₐ) and dissociation (kd) rate constants were determined by fitting the real-time sensorgrams to a 1:1 binding model using Cytiva Insight curve fitting software. Binding dissociation equilibrium constants (KD) and dissociative half-lives (t/2) were calculated from the kinetic rate constants as: […]

[8] = target: T4, human 4-1BB expressed with a C-terminal murine Fc tag (human, UniProt Q07011 24-186); test: SPR Biacore 8k, antibody captured by anti-human Fc, h4-1BB.mFc as analyte, 25 C
T4 construct: also called h4-1BB.mFc; REGN3585; not shown: C-terminal murine Fc tag
Description: as §2, §3

[9] = target: T4, human 4-1BB expressed with a C-terminal …; test: SPR Biacore 4000, h4-1BB.mFc captured by anti-mouse Fc, antibody as analyte, 25 C
Description: Equilibrium dissociation constants (KD values) for human 4-1BB expressed with a C-terminal murine Fc tag (h4-1BB.mFc, REGN3585) binding to purified anti-CD38×4-1BB 1+2 antibodies were determined using a real-time surface plasmon resonance biosensor using a Biacore 4000 instrument. […] All Biacore binding studies were performed in a buffer composed of 0.01M HEPES pH 7.4, 0.15M NaCl, 3 mM EDTA, 0.05% v/v Surfactant P20 (HBS-EP running buffer). Different concentrations of CD38×4-1BB 1+2 constructs prepared in HBS-EP running buffer (ranging from 100 to 6.25 nM in 4-fold serial dilutions) were injected over the h4-1BB.mFc (REGN3585) captured surface at a flow rate of 30 μL/minute. Antibody-reagent association was monitored for 5 minutes while dissociation in HBS-EP running buffer was monitored for 10 minutes. At the end of each cycle, the h4-1BB.mFc capture surface was regenerated using a 40 sec injection of 10 mM glycine, pH 1.5. All binding kinetics experiments were performed at 25° C.
as §3

T1 sequence (Q07011 24-255): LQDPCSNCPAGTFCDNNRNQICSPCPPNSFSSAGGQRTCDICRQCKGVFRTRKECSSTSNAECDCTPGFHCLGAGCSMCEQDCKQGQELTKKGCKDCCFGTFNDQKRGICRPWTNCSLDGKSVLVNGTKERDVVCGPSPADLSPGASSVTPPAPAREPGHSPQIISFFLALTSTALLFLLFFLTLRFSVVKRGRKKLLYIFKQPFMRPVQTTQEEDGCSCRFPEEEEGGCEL
T3 sequence (Q07011 24-186 limits assumed): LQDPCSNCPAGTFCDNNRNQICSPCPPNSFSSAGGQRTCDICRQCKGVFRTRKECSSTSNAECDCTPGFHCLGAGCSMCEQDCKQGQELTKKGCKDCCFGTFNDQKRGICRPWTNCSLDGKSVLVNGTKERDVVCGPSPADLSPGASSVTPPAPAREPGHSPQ
T4 sequence (Q07011 24-186 limits assumed): as above

EC50 of IL-2 release, T cells + HEK293/CD20/CD38 + REGN1979 (human 4-1BB on cells [1]): 0.014 nM
EC50 of IL-2 release, T cells + MOLP-8 + REGN5458 (human 4-1BB on cells [1]): 0.0317 nM
MAX IL-2 release, T cells + HEK293/CD20 + REGN1979 (human 4-1BB on cells [1]): 184 pg/mL
MAX IL-2 release, T cells + HEK293/CD20/CD38 + IsoC (human 4-1BB on cells [1]): 10 pg/mL
MAX IL-2 release, T cells + HEK293/CD20/CD38 + REGN1979 (human 4-1BB on cells [1]): 2720 pg/mL
MAX IL-2 release, T cells + MOLP-8 + IsoC (human 4-1BB on cells [1]): 288 pg/mL
MAX IL-2 release, T cells + MOLP-8 + REGN5458 (human 4-1BB on cells [1]): 553 pg/mL
EC50 of luciferase activity, HEK293/NFkB-Luc/h4-1BB reporter + OPM2 (human 4-1BB on cells [2]): 0.0989 nM
MAX luciferase activity, HEK293/NFkB-Luc/h4-1BB reporter + HEK293/CD20 (human 4-1BB on cells [2]): 1.5e+06 RLU
MAX luciferase activity, HEK293/NFkB-Luc/h4-1BB reporter + HEK293/CD20/CD38 (human 4-1BB on cells [2]): 2.3e+06 RLU
MAX luciferase activity, HEK293/NFkB-Luc/h4-1BB reporter + MOLP-8 (human 4-1BB on cells [2]): 2.4e+06 RLU
MAX luciferase activity, HEK293/NFkB-Luc/h4-1BB reporter + OPM2 (human 4-1BB on cells [2]): 2e+06 RLU
EC50 of IL-2 release, T cells + NALM6 + Cemiplimab (human 4-1BB on cells [3]): 0.155 nM
EC50 of IL-2 release, T cells + NALM6 + IgG4P (human 4-1BB on cells [3]): 0.179 nM
EC50 of IL-2 release, T cells + NALM6/PD-L1 + Cemiplimab (human 4-1BB on cells [3]): 0.283 nM
EC50 of IL-2 release, T cells + NALM6/PD-L1 + IgG4P (human 4-1BB on cells [3]): 0.228 nM
EC50 of IFNγ release, T cells + NALM-6 + Cemiplimab (human 4-1BB on cells [4]): 0.156 nM
EC50 (human 4-1BB on cells [5]): 0.997 nM
MAX gMFI (human 4-1BB on cells [5]): 1e+06 gMFI
MAX gMFI [6]: 140000 gMFI
100 nM h4-1BB.mmH Bind (RU) [7]: 41.9 RU
Kd [7]: 20.4 nM
koff [7]: 0.00535 s⁻¹
kon [7]: 262000 M⁻¹ s⁻¹
t½ [7]: 2.2 min
100 nM h4-1BB.mFc Bind (RU) [8]: 152 RU
Kd [8]: 1.2 nM
koff [8]: 0.000122 s⁻¹
kon [8]: 102000 M⁻¹ s⁻¹
t½ [8]: 1.58 h
100 nM Ab Bind (RU) [9]: 266 RU
Kd [9]: 0.797 nM
koff [9]: 0.000169 s⁻¹
kon [9]: 212000 M⁻¹ s⁻¹
t½ [9]: 1.14 h
B1: REGN7650 (bispecific antibody, human IgG4 S228P, kappa)
heavy 1: EVQLVESGGGLVQPGGSLRLPCAASGFTFSSYAMSWVRQAPGKGLEWVADISGSGGDTYYVDSVKGRFTISRDNSKNTLYLQMNSLRIEDTAVYYCAKGRWHWNYEGFDIWGQGTMVTVSSASTKGPSVFPLAPCSRSTSESTAALGCLVKDYFPEPVTVSWNSGALTSGVHTFPAVLQSSGLYSLSSVVTVPSSSLGTKTYTCNVDHKPSNTKVDKRVESKYGPPGGGGSGGGGSGGGGSQVQLVESGGDVVQPGRSLRLSCTASGFTFSSFGMHWVRQAPGKGLEWVTFLSYDGSYKYYADSVKGRFTISRDNSKNTLYLQMNSLRAEDTAIFYCARDWLDYWGQGTLVTVSSASTKGPSVFPLAPCSRSTSESTAALGCLVKDYFPEPVTVSWNSGALTSGVHTFPAVLQSSGLYSLSSVVTVPSSSLGTKTYTCNVDHKPSNTKVDKRVESKYGPPCPPCPAPPVAGPSVFLFPPKPKDTLMISRTPEVTCVVVDVSQEDPEVQFNWYVDGVEVHNAKTKPREEQFNSTYRVVSVLTVLHQDWLNGKEYKCKVSNKGLPSSIEKTISKAKGQPREPQVYTLPPSQEEMTKNQVSLTCLVKGFYPSDIAVEWESNGQPENNYKTTPPVLDSDGSFFLYSRLTVDKSRWQEGNVFSCSVMHEALHNRFTQKSLSLSPGK
heavy 2: EVQLVESGGGLVQPGRSLRLSCAASGFTFDDYAMHWVRQAPGKGLEWVSGISWKSDNIGYADSVKGRFTISRDNAKNSLYLQMNSLRAEDTALYYCAKALGGWKFDYYYGMDVWGQGTTVTVSSASTKGPSVFPLAPCSRSTSESTAALGCLVKDYFPEPVTVSWNSGALTSGVHTFPAVLQSSGLYSLSSVVTVPSSSLGTKTYTCNVDHKPSNTKVDKRVESKYGPPCPPCPAPPVAGPSVFLFPPKPKDTLMISRTPEVTCVVVDVSQEDPEVQFNWYVDGVEVHNAKTKPREEQFNSTYRVVSVLTVLHQDWLNGKEYKCKVSNKGLPSSIEKTISKAKGQPREPQVYTLPPSQEEMTKNQVSLTCLVKGFYPSDIAVEWESNGQPENNYKTTPPVLDSDGSFFLYSRLTVDKSRWQEGNVFSCSVMHEALHNHYTQKSLSLSLGK
light: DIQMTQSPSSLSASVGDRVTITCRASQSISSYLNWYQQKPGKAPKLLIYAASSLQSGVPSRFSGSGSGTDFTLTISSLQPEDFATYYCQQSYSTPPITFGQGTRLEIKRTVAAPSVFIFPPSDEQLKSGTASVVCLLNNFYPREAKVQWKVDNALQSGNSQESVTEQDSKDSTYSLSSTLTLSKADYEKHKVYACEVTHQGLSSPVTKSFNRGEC
notes: 1+2 format, hIgG4P-PVA; also called CD38x4-1BB (1 + 2); 26812P2 x 25898P2 (IN) + 35321P2 (OUT)

— patent US20230416396A1 (Regeneron, published 2023)
